The values below come from patent US8728787B2, “Fungal laccases and uses thereof” (Academia Sinica, priority 2010, dated 2014).

The conditions of data set [1]: pH 3. As for the experimental part: Lignin degradation reaction was carried out by mixing a crude laccase broth (containing 100 U enzyme) with 50 ml reaction buffer (50 mM citric acid solution; pH 3.0) containing 100 mg smashed rice straw materials. The mixture was incubated at 30-80° C. for 20-60 min. Sodium azide was added to the mixture at a final concentration of 1 mM to stop the enzymatic reaction. The processed rice straw was collected by filtration and dried at 60° C. The lignin contents in the rice straw before and after treatment were determined following the method described in kappa number of ISO 302:2004 (International Organization for Standardization).
The lignin degradation reaction and the dye decoloration reaction were carried out following the methods described in Example 1 above. […] See FIG. 9, pane A. The lignin degradation efficiencies were 22%-25% at 40-50° C. for 40 min and 32% at 40° C. for 60 min.

Data set [2] in a line: pH stability: residual activity after pre-incubation at various pH. It is filed as physicochemical. As for the experimental part:
(§1) The effect of pH on the laccase activity was investigated at a pH range of 2.5-6.0. Four buffer systems were used in this study: 50 mM glycine-HCl buffer (pH 2.5), 50 mM citric acid buffer (pH 3.0-5.5), 50 mM sodium phosphate buffer (pH 6.0-8.0), and 50 mM glycine-NaOH buffer (pH 9.0-10). To determine the protein stability of laccase at a wide range of pH conditions, the enzyme (0.1 mg/mL in each reaction) was pre-incubated at pH 3.0-10 at 25° C. for 0-5 days and then the residual enzyme activity was determined.
(§2) The effect of pH on laccase activity was investigated at pH 2.0-6.0, using a glycine-HCl buffer (pH 2.0-2.5) or a citric acid buffer (pH 2.5-6.0). To determine protein stability in different pH conditions, the enzyme was pre-incubated at pH 2.5-4.5 at 25° C. for 0-2 h and the residual enzyme activity was determined by the standard enzymatic assay.

A short description of data set [3]: Effect of organic solvents on laccase activity. Particulars: ABTS. It is filed as biochemical. The protocol: To test the effects of various organic solvents on laccase activity, the enzymatic assay described above was carried out in the presence of one of the organic solvents shown in Table 1 below at various concentrations (1%, 10% and 25%). A T. versicolor (Fluka) laccase was used as a reference enzyme in this study. The enzyme concentration used in this study was 0.2 mg/ml. […] Further, more than 80% laccase activity remained in the presence of 10% acetonitrile or dimethyl sulfoxide. […]

The nature of data set [4]: Thermal denaturation by differential scanning calorimetry (DSC). It is filed as physicochemical. Particulars: 10 mM sodium phosphate buffer (pH 6.0). The protocol:
Thermal denaturation of laccase was determined by differential scanning calorimetry (DSC) using a Nano Differential Scanning calorimeter (N-DSC III) (TA Instruments, New Castle, Del.) at a heating rate of 1° C./min under a temperature from 30 to 95° C. and excess pressure of 3.0 atm. The protein concentration was 0.55 mg/ml in 10 mM sodium phosphate buffer (pH 6.0). Baseline corrections were performed and smoothed by subtracting a buffer thermogram. The data were then analyzed using the Launch NanoAnalyze Software (TA Instruments, New Castle, Del.), assuming a two-state unfolding model. See Pace et al., The Protein Structure: A Practical Approach; Creighton T. E., Ed.: IRL Press; Oxford U.K., pp. 311-330; 1989.
On the technique in general: Differential scanning calorimetry records heat flow against a reference as temperature is scanned.

The nature of data set [5]: Guaiacol oxidation (laccase kinetics, optimum temperature and pH). In kind it is biochemical. The settings on record: guaiacol as substrate. As for the experimental part: The effect of temperature on laccase activity was studied using the standard enzymatic activity assay described above under various reaction temperatures (i.e., 20-80° C.). For thermal stability study, the enzyme was pre-incubated in a 50 mM citric acid buffer (pH 3.0) at 50-80° C. for 0-180 min and the residual enzymatic activity was then determined.
as §1
Kinetic parameters Km and Vmax were determined as follows. […] The oxidation reactions of guaiacol and 2,6-DMP were monitored by determining OD436 values (ε=6,400 M^−1cm^−1) and OD468 values (ε=49,600 M^−1 cm^−1), respectively. The kinetic parameters were determined by nonlinear regression analysis (ENZFITTER software program, Elsevier-Biosoft, Cambridge, UK) using the Michaelis-Menten model.
To determine the effect of temperature on the enzyme activity, a standard enzymatic activity assay was performed under various temperatures (i.e., 30-90° C.). For thermal stability study, laccase was pre-incubated in a 50 mM citric acid buffer (pH 3.0) at 30-80° C. for 10-40 min and the residual enzymatic activity was then determined by the standard assay. See Example 1 above. Values of t1/2 were determined accordingly.
as §2
Kinetic parameters were determined following conventional methods. See also Example 1 above.

B1: Lcc3: laccase purified from Cerrena sp. WR1, GenBank accession no. GQ899203; SEQ ID NO:3 mature, 9 precursor (protein)
chain: AIGPVADLHITDANVSPDGFTRPAVLAGGTFPGPLITGKQGDNFQINVIDELTDATMLKSTSIHWHGIFQKGTNWADGPSFVNQCPITTGNSFLYDFSVPDQTGTYWYHSHLSTQYCDGLRGALVIYDDNDPHKDLYDVDDETTVITLADWYHTQARLITGVPVSDATLINGLGRYLNGPTDAPLAVITVDQGKRYRFRLVSISCDPNFVFSIDNHSMTVIEVDAVNSQPLVVDSIQIFAAQRYSFILNANQSVGNYWIRANPNLGNTGFTNGINSAILRYNGAPVAEPNTTQTASTNPLNEVNLHPLVPTPVPGTPQPGGVDVVQNLVLGFSGGKFTINGVAFSPPTVPVLLQILSGTTTAQDLLPTGSIIELPLGKTVELTLAAGVLGGPHPFHLHGHTFHVVRSAGQTTPNYVDPILRDTVNTGAAGDNVTIRFTTDNPGPWFLHCHIDWHLEAGFAVVFAEGLNQTNAANPTPDAWNNLCDLYNALPAGDQ
modifications: Cerrena sp
On to B1, for which, in data set [1], the “highest lignin degradation efficiency per 100 U” value is recorded as “around 22.9%”. The “stability at an acidic environment” value in data set [2] (pH 3.0-5.0) was “less stable”. In addition, the activity maintained entry in data set [2] (pH 6-10, 63 hr incubation, 25° C.) is given as “about 100%”. For the same molecule, the Relative activity in data set [3] (Acetonitrile 1%, pH 3.0, 30° C.) is 92.7 ± 2.5%; in data set [3] (Acetonitrile 25%, pH 3.0, 30° C.), 77.5 ± 3.2%; in data set [3] (Dimethyl sulfoxide 1%, pH 3.0, 30° C.) it was 93.5 ± 1.4%; in data set [3] (Dimethyl sulfoxide 25%, pH 3.0, 30° C.), 55.8 ± 1.7%; in data set [3] (Ethanol 1%, pH 3.0, 30° C.), 94.5 ± 1.8%; in data set [3] (Ethanol 10%, pH 3.0, 30° C.) it was 93.9 ± 4.0%. For the same molecule, the Relative activity in data set [3] (Ethanol 25%, pH 3.0, 30° C.) was 84.8 ± 3.3%; in data set [3] (Methanol 1%, 50 mM citric acid buffer pH 3.0, 30° C.), 93.0 ± 1.5%; in data set [3] (Methanol 10%, pH 3.0, 30° C.), 85.5 ± 0.9%; in data set [3] (N,N-dimethylformamide 1%, pH 3.0, 30° C.), 100 ± 0.9%; in data set [3] (N,N-dimethylformamide 10%, pH 3.0, 30° C.) it was 98.4 ± 0.5%. Moreover, the “midpoint temperature (Tm)” value in data set [4] is 73.95 °C. Further, the optimal temperature in data set [5] was 70 °C. In data set [5], the “pH of maximal activity” value is reported as 4.5. Besides, in data set [5] (at pH 4.5), the Optimum temperature is recorded as 70 (at pH 4.5) ° C. This molecule also registered a Specific activity in data set [5] (optimum temperature and pH) of 189.7 U/mg.
